Laboratory results: article PMC11369174 (Molecular Systems Biology, 2024)
Where no end group is shown, it is not given here.

Columns and labels:
Assay in all cases: fluorescence polarisation; saturation binding: dilution series of the protein domain added to 10 nM FITC-labelled peptide; 50 mM sodium phosphate pH 7.4, 0.05% Tween (protein dialysed in 50 mM sodium phosphate with 1 mM DTT; CASK kinase domain with 100 mM NaCl in addition); quadratic fit; technical triplets
Conditions in all cases: both partners purified
USP7 MATH/TRAF domain = biological target: T1, USP7 MATH/TRAF domain (human)
T1 construct: USP7, human, MATH/TRAF domain; source: E. coli BL21 (DE3) Gold, purified (glutathione or Ni2+ beads)

MAP1LC3B ATG8 domain = MAP1LC3B ATG8 domain (human, UniProt Q9GZQ8 1-120)
GABARAPL1 ATG8 domain = biological target: T2, GABARAPL1 ATG8 domain (human)
T2 construct: GABARAPL1, human, ATG8 domain; source: E. coli BL21 (DE3) Gold, purified (glutathione or Ni2+ beads)

MAP1LC3A ATG8 domain = biological target: T3, MAP1LC3A ATG8 domain (human)
T3 construct: MAP1LC3A, human, ATG8 domain; source: E. coli BL21 (DE3) Gold, purified (glutathione or Ni2+ beads)

Kd (USP7 MATH/TRAF domain) | Kd (MAP1LC3B ATG8 domain) | Kd (GABARAPL1 ATG8 domain) | Kd (MAP1LC3A ATG8 domain) | Binder
500 nM |  |  |  | DYSQPSTSSSIIY (also: FITC label, position not given here) [FITC-MDM2]
 | 1400 nM | 3700 nM | 680 nM | DDDWTHLSSK (also: FITC label, position not given here) [FITC-SQSTM1]
